From US20250154276A1 (ZONHON BIOPHARMA INSTITUTE, published 2025)

B1: ZA23 (bispecific antibody, human IgG1, kappa)
heavy 1: QVQLVQSGAEVVKPGASVKISCKASGFNIKDTYIYWVRQRTGQGLEWIGRIEPMNGNTKYDPKFQGRLTMTANTSKNTAYLQLSSLTSEDTAVYYCSRGGWLLLYVMDYWGQGTTVTVSSASTKGPSVFPLAPSSKSTSGGTAALGCLVKDYFPEPVTVSWNSGALTSGVHTFPAVLQSSGLYSLSSVVTVPSSSLGTQTYICNVNHKPSNTKVDKKVEPKSCDKTHTCPPCPAPEFLGGPSVFLFPPKPKDTLMISRTPEVTCVVVDVSQEDPEVQFNWYVDGVEVHNAKTKPREEQFNSTYRVVSVLTVLHQDWLNGKEYKCKVSNKGLPSSIEKTISKAKGQPREPQVYTLPPCQEEMTKNQVSLWCLVKGFYPSDIAVEWESNGQPENNYKTTPPVLDSDGSFFLYSRLTVDKSRWQEGNVFSCSVMHEALHNHYTQKSLSLSLGK
light 1: DIVMTQSASSLPVTPGEPASISCRSDKSLLHSNGNTYLYWFLQKPGQSPQVLIYRMSNLASGVPDRFSGSGSGTDFTLTISRVEAEDVGVYYCFQQLEYPYTFGQGTKLEIKRTVAAPSVFIFPPSDEQLKSGTASVVCLLNNFYPREAKVQWKVDNALQSGNSQESVTEQDSKDSTYSLSSTLTLSKADYEKHKVYACEVTHQGLSSPVTKSFNRGEC
heavy 2: DVQLVQSGAEVKKPGASVKVSCKASGYTFTRYTMHWVRQAPGQGLEWIGYINPSRGYTNYADSVKGRFTITTDKSTSTAYMELSSLRSEDTATYYCARYYDDHYCLDYWGQGTTVTVSSASTKGPSVFPCAPSSKSTSGGTAALGCLVKDYFPEPVTVSWNSGALTSGVHTFPAVLQSSGLYSLSSVVTVPSSSLGTQTYICNVNHKPSNTKVDKKVEPKSSDKTHTCPPCPAPEFLGGPSVFLFPPKPKDTLMISRTPEVTCVVVDVSQEDPEVQFNWYVDGVEVHNAKTKPREEQFNSTYRVVSVLTVLHQDWLNGKEYKCKVSNKGLPSSIEKTISKAKGQPREPQVCTLPPSQEEMTKNQVSLSCAVKGFYPSDIAVEWESNGQPENNYKTTPPVLDSDGSFFLVSRLTVDKSRWQEGNVFSCSVMHEALHNHYTQKSLSLSLGK
light 2: DIVLTQSPATLSLSPGERATLSCRASQSVSYMNWYQQKPGKAPKRWIYDTSKVASGVPARFSGSGSGTDYSLTINSLEAEDAATYYCQQWSSNPLTFGGGTKVEIKRTVAAPSVFICPPSDEQLKSGTASVVCLLNNFYPREAKVQWKVDNALQSGNSQESVTEQDSKDSTYSLSSTLTLSKADYEKHKVYACEVTHQGLSSPVTKSFNRGES
B2: ZA16 (bispecific antibody, human IgG1, kappa)
heavy 1: not shown
light 1: DIVMTQSPSSLSVTPGERVSISCRSDKSLLHSNGNTYLYWFLQKPGQSPQVLIYRMSNLASGVPDRFSGSGSGTDFTLTISRVEAEDVGVYYCFQQLEYPYTFGQGTKLEIKRTVAAPSVFIFPPSDEQLKSGTASVVCLLNNFYPREAKVQWKVDNALQSGNSQESVTEQDSKDSTYSLSSTLTLSKADYEKHKVYACEVTHQGLSSPVTKSFNRGEC
heavy 2: not shown
light 2: DIVLTQSPATLSLSPGERATLSCRASQSVSYMNWYQQKPGKAPKRWIYDTSKVASGVPARFSGSGSGTDYSLTINSLEAEDAATYYCQQWSSNPLTFGGGTKVEIKRTVAAPSVFICPPSDEQLKSGTASVVCLLNNFYPREAKVQWKVDNALQSGNSQESVTEQDSKDSTYSLSSTLTLSKADYEKHKVYACEVTHQGLSSPVTKSFNRGES
B3: 19G294 (bispecific antibody)
chain: DIVMTQSPSSLSVTPGERVSISCRSDKSLLHSNGNTYLYWFLQKPGQSPQVLIYRMSNLASGVPDRFSGSGSGTDFTLTISRVEAEDVGVYYCFQQLEYPYTFGQGTKLEIKGGGGSGGGGSGGGGSEVQLVQSGAELVKPGASVKLSCAASGFNIKDTYIYWVRQAPGQGLEWVGRIEPMNGNTKYDPKFQGRFTMTANTSKNTAYLQLSSLRSEDTAVYYCSRGGWLLLYVMDYWGQGTLVTVSSGGGGSDVQLVQSGAEVKKPGASVKVSCKASGYTFTRYTMHWVRQAPGQGLEWIGYINPSRGYTNYADSVKGRFTITTDKSTSTAYMELSSLRSEDTATYYCARYYDDHYCLDYWGQGTTVTVSSGGGGSGGGGSGGGGSDIVLTQSPATLSLSPGERATLSCRASQSVSYMNWYQQKPGKAPKRWIYDTSKVASGVPARFSGSGSGTDYSLTINSLEAEDAATYYCQQWSSNPLTFGGGTKVEIK
B4: 18G272 (bispecific antibody)
chain: DIVMTQSASSLPVTPGEPASISCRSDKSLLHSNGNTYLYWFLQKPGQSPQVLIYRMSNLASGVPDRFSGSGSGTDFTLTISRVEAEDVGVYYCFQQLEYPYTFGQGTKLEIKGGGGSGGGGSGGGGSQVQLVQSGAEVVKPGASVKISCKASGFNIKDTYIYWVRQRTGQGLEWIGRIEPMNGNTKYDPKFQGRLTMTANTSKNTAYLQLSSLTSEDTAVYYCSRGGWLLLYVMDYWGQGTTVTVSSGGGGSDVQLVQSGAEVKKPGASVKVSCKASGYTFTRYTMHWVRQAPGQGLEWIGYINPSRGYTNYADSVKGRFTITTDKSTSTAYMELSSLRSEDTATYYCARYYDDHYCLDYWGQGTTVTVSSGGGGSGGGGSGGGGSDIVLTQSPATLSLSPGERATLSCRASQSVSYMNWYQQKPGKAPKRWIYDTSKVASGVPARFSGSGSGTDYSLTINSLEAEDAATYYCQQWSSNPLTFGGGTKVEIK

Tests used:
[1] = target: T1, human CD26 (human, UniProt P27487 1-766); assay: cell-based or functional assay
[2] = target: T1, human CD26; assay: cell-based or functional assay; remark: listed apart in the source

| Binder | IC50 values (pM) of different bispecific antibodies mediating PBMC cytotoxicity to OS-RC-2 [1] [pM] | IC50 values (pM) of different bispecific antibodies mediating PBMC cytotoxicity to different target cells (786-0) [2] [pM] | IC50 values (pM) of different bispecific antibodies mediating PBMC cytotoxicity to different target cells (NCI-H226) [2] [pM] | IC50 values (pM) of different bispecific antibodies mediating PBMC cytotoxicity to different target cells (OS-RC-2) [2] [pM] | IC50 values (pM) of different bispecific antibodies mediating PBMC cytotoxicity to different target cells (PC-3) [2] [pM] |
| --- | --- | --- | --- | --- | --- |
| B1 | 87.5 |  |  |  |  |
| B2 | 5.8 |  |  |  |  |
| B3 | 9.9 | 4.7 | 13.7 | 9.9 | 4 |
| B4 |  | 41.4 | 2.6 | 5.2 | 6.9 |
